The values below come from patent US20250026787A1, “PEPTIDES AND METHODS FOR REDUCING SKIN PIGMENTATION” (Glo Pharma, Inc., priority 2021, published 2025).

Square brackets hold non-standard residues; d marks the D form. Ends that are not written are not given here.

This assay deals with Human recombinant melanocortin MC1 receptor (human) (UniProt Q01726). Kind of assay: radioligand competition, displacement of [125I]NDP-alpha-MSH from human MC1R (CHO-K1), Example 7. (In general: Loss of bound radioactivity is the signal in a displacement assay; it reports binding, not function.)
Chain of Human recombinant melanocortin MC1 receptor (human) (Q01726 whole entry): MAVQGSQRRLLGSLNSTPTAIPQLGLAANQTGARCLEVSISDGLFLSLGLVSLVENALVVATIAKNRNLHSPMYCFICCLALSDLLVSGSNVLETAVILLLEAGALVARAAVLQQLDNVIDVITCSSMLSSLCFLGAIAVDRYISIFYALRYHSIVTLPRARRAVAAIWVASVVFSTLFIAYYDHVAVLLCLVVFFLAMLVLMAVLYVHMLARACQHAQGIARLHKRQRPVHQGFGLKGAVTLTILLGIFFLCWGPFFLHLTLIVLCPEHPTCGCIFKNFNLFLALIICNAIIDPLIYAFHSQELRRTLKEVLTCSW

B1: SEQ ID NO: 35 (peptide)
peptide: MV[dF][dR][dW]FKPV-NH2
modifications: N-terminus assumed
SMILES: CSCC[C@H](N)C(=O)N[C@H](C(=O)N[C@H](Cc1ccccc1)C(=O)N[C@H](CCCNC(=N)N)C(=O)N[C@H](Cc1c[nH]c2ccccc12)C(=O)N[C@@H](Cc1ccccc1)C(=O)N[C@@H](CCCCN)C(=O)N1CCC[C@H]1C(=O)N[C@H](C(N)=O)C(C)C)C(C)C
In general, IC50 refers to the concentration that inhibits the measured activity by half. As for B1, the IC50 was more than 500 nM.

B2: SEQ ID NO: 40 (peptide)
peptide: A[dL][dF]R[dW]FKPV-NH2
modifications: N-terminus assumed
SMILES: CC(C)C[C@@H](NC(=O)[C@H](C)N)C(=O)N[C@H](Cc1ccccc1)C(=O)N[C@@H](CCCNC(=N)N)C(=O)N[C@H](Cc1c[nH]c2ccccc12)C(=O)N[C@@H](Cc1ccccc1)C(=O)N[C@@H](CCCCN)C(=O)N1CCC[C@H]1C(=O)N[C@H](C(N)=O)C(C)C
For B2, the IC50 was more than 500 nM.
